Numbering of substitutions follows the chain as printed. Like-named read-outs stand apart in the source and are kept apart here. Values belong to the binder of their own block, whether it stands above or below them.
Assays:
[1] = biological target: T1, human pulmonary SP-A protein in human lung tissue (Homo sapiens, endogenous lung tissue, UniProt Q8IWL2)
[2] = biological target: T2, recombinant human SP-A protein (pulmonary surfactant protein A) (Homo sapiens, UniProt Q8IWL2); assay: BLI; ForteBio's Octet System; Nb4 and purified recombinant human SP-A; who was immobilised is not stated; settings: both partners purified
T2 construct: human pulmonary surfactant protein A; gene provided by Shanghai YouLong Biotech; About 41 kDa on SDS-PAGE, which would fit a fusion with the carrier of the pET32 vector; also called purified recombinant SP-A; PET32-SPA; source: E. coli BL21 (PET32-SPA), purified

[3] = biological target: T1, human pulmonary SP-A protein in human …; assay: far-Western, overlay or dot blot; human lung tissue homogenate proteins separated by SDS-PAGE, transferred to a PVDF membrane and probed with Nb4 overnight at 4 °C; detected with anti-His-HRP; settings: one partner purified
[4] = biological target: T3, SP-A in human lung epithelial A549 cells (Homo sapiens, endogenous in A549 cells, UniProt Q8IWL2); assay: immunostaining of cells or tissue; fixed A549, L-02 and 293T cells stained with Nb4-FITC; confocal microscopy; settings: one partner purified
T3 construct: human pulmonary surfactant protein A, endogenous in A549 cells; source: endogenous, A549 cells, fixed
T3 sequence (Q8IWL2 21-248): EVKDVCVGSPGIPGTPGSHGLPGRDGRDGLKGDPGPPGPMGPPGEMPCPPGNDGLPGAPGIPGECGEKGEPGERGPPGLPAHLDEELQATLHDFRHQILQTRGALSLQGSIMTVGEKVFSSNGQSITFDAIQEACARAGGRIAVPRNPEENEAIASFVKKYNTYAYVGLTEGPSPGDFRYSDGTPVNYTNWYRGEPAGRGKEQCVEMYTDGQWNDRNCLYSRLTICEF

T1 sequence (Q8IWL2 21-248): as above
T2 sequence (Q8IWL2 21-248): as above

binding result [1]: binds
B1: Nb15 (VHH)
VHH: QLQLVESGGGLVQPGGSLSVSCAVRGRDLDYYVIGWFRQAPGKEREGVSCINNSDDTTYYSDSVKGRFTISRDHAKNTVYLQMNNLKPEDTALYYCAADFDRLDFTVKAMCVMKFFYYWGQGTQVTVSS

Kd [2]: 748 nM | binding result [3]: binds
B2: Nb4 (anti-human pulmonary SP-A nanobody) (VHH)
VHH: QLQLVESGGGLVQPGGSLRLSCAASEFTLDYYEIGWFRQAPGKDREGLSCIGYSDRIAYYSESVKGRFTTVRDDATSTVSLYMDMMIPEDTGTYYCAGSVVEPYELLPAAEYDYWGQGTRVTVSS
notes: About 19 kDa on SDS-PAGE; also called Nb4-His; source: E. coli BL21 (pET-26b (+)-VHH), purified

binding result [4]: binds
B3: Nb4-FITC (VHH)
VHH: B2 VHH
notes: as the VHH chain of m1; Same nanobody as m1, with a FITC label; also called Nb4 labeled with FITC; source: E. coli BL21 (pET-26b (+)-VHH), purified, labeled with FITC

binding result [1]: binds
B4: Nb6 (VHH)
VHH: QLQLVESGGDLAQPGGSLTLSCTASGTFKIYSMGWYRRPQRELVAEMLNGGDTQYSDSVKGRFTISRTNNTMYLHMNNLKPEDTAVYYCNLQDWYSEPAGDYWGPGTQVTVSS

binding result [1]: binds
B5: Nb11 (VHH)
VHH: QLQLVESGGGLVQPGGSLRLSCTASKFHLDSYAVAWFRQTPGKEREAVSFINTSDDVTYFADSVKGRFTISRDNSKNTVYLQMNVLKPEDTSIYVCAAVRSPGPTGPSMQPMWSVPDLYDYWGQGTQVTVSS

binding result [1]: binds
B6: Nb17 (VHH)
VHH: QLQLVESGGGLVQPGGSLRLACAASGFNLDDYADIGWFRQAPGKERERVLCITISDGTTYYEDSGKGRFSISTDIAKNTVFLQMDSLKAEDTAVYYCAGDPAPFCLYNTYVPRTWGQGTQVTVSS

binding result [1]: binds
B7: Nb29 (VHH)
VHH: QVKLVESGGGSVQAGGSLRLSCTASGSDYRWMYIARFRQCPGKEREGVAAIYTDDTDDSSPIYATSAKGRFTISQDKDKNAVYLQMNSPKPEDTAMYYCAARAFGGTWSLSSPDDFSAWGQGTQVTVSS

binding result [1]: binds
B8: Nb38 (VHH)
VHH: B7 VHH with R19I

binding result [1]: binds
B9: Nb43 (VHH)
VHH: QLQLVESGGGLVQSGGSLRLSCAASGFTFNDYRMSWVRQAPGKGLEWVSDINSGGSSTYYADSVKGRFTVSRDNAKNTLYLQMNSLKPEDTAIYYCVALLGRGCSGLVQGAFGPWGQGTQVTVSS

Reference: paper PMC5431231, “Identification of a nanobody specific to human pulmonary surfactant protein A” (Scientific Reports, 2017)
